Measurements published in patent US20260232827A1 (Zymeworks, published 2026).

B1: v38591-MC-GGFG-AM-Compound 139 DAR 4 (antibody, human IgG1, kappa)
heavy: not shown
light: DVQMTQSPSSLSASVGDRVTITCRASQDVYSYLNWYQQKPGKAVKLLIYYTSRLQSGVPSRFSGSGSGTDYTLTISSLQPEDFATYYCQQYNIFPWTFGQGTKLEIKRTVAAPSVFIFPPSDEQLKSGTASVVCLLNNFYPREAKVQWKVDNALQSGNSQESVTEQDSKDSTYSLSSTLTLSKADYEKHKVYACEVTHQGLSSPVTKSFNRGEC
modifications: drug-linker MC-GGFG-AM-Compound 139 on cysteines freed by TCEP reduction, DAR 4 over the whole antibody
B2: v40502-MC-GGFG-AM-Compound 139 DAR 4 (antibody, human IgG1, kappa, L234A L235A)
heavy: not shown
light: B1 light
modifications: drug-linker MC-GGFG-AM-Compound 139 on cysteines freed by TCEP reduction, DAR 4 over the whole antibody
B3: v40502 (LALADS) anti-NaPi2b antibody (antibody, human IgG1, kappa, L234A L235A)
heavy: not shown
light: B1 light
notes: v38591 with L234A, L235A and D265S (EU) in the Fc
B4: v40502 (LALADS)-MC-GGFG-AM-Compound 139 DAR 4 (antibody, human IgG1, kappa, L234A L235A)
heavy: not shown
light: B1 light
modifications: as above; MC-GGFG-AM-Compound 139 drug-linker on cysteines freed by TCEP reduction; sites not stated; DAR 4
notes: Antibody-drug conjugate of v40502
B5: Upifitamab (v40885, wild-type Fc) (antibody, human IgG1, kappa)
heavy 1: GQVQLVQSGAEVVKPGASVKMSCKASGYTFTGYNIHWVKQAPGQGLEWIGAIYPGNGDTSYKQKFRGRATLTADTSTSTVYMELSSLRSEDSAVYYCARGETARATFAYWGQGTLVTVSSASTKGPSVFPLAPSSKSTSGGTAALGCLVKDYFPEPVTVSWNSGALTSGVHTFPAVLQSSGLYSLSSVVTVPSSSLGTQTYICNVNHKPSNTKVDKKVEPKSCDKTHTCPPCPAPELLGGPSVFLFPPKPKDTLMISRTPEVTCVVVDVSHEDPEVKFNWYVDGVEVHNAKTKPREEQYNSTYRVVSVLTVLHQDWLNGKEYKCKVSNKALPAPIEKTISKAKGQPREPQVYVYPPSRDELTKNQVSLTCLVKGFYPSDIAVEWESNGQPENNYKTTPPVLDSDGSFALVSKLTVDKSRWQQGNVFSCSVMHEALHNHYTQKSLSLSPG
heavy 2: not shown
light: GDIQMTQSPSSLSASVGDRVTITCSASQDIGNFLNWYQQKPGKTVKVLIYYTSSLYSGVPSRFSGSGSGTDYTLTISSLQPEDFATYYCQQYSKLPLTFGQGTKLELKRTVAAPSVFIFPPSDEQLKSGTASVVCLLNNFYPREAKVQWKVDNALQSGNSQESVTEQDSKDSTYSLSSTLTLSKADYEKHKVYACEVTHQGLSSPVTKSFNRGEC
B6: Lifastuzumab (v18993, wild-type Fc) (antibody, human IgG1, kappa)
heavy 1: GEVQLVESGGGLVQPGGSLRLSCAASGFSFSDFAMSWVRQAPGKGLEWVATIGRVAFHTYYPDSMKGRFTISRDNSKNTLYLQMNSLRAEDTAVYYCARHRGFDVGHFDFWGQGTLVTVSSASTKGPSVFPLAPSSKSTSGGTAALGCLVKDYFPEPVTVSWNSGALTSGVHTFPAVLQSSGLYSLSSVVTVPSSSLGTQTYICNVNHKPSNTKVDKKVEPKSCDKTHTCPPCPAPELLGGPSVFLFPPKPKDTLMISRTPEVTCVVVDVSHEDPEVKFNWYVDGVEVHNAKTKPREEQYNSTYRVVSVLTVLHQDWLNGKEYKCKVSNKALPAPIEKTISKAKGQPREPQVYVYPPSRDELTKNQVSLTCLVKGFYPSDIAVEWESNGQPENNYKTTPPVLDSDGSFALVSKLTVDKSRWQQGNVFSCSVMHEALHNHYTQKSLSLSPG
heavy 2: not shown
light: GDIQMTQSPSSLSASVGDRVTITCRSSETLVHSSGNTYLEWYQQKPGKAPKLLIYRVSNRFSGVPSRFSGSGSGTDFTLTISSLQPEDFATYYCFQGSFNPLTFGQGTKVEIKRTVAAPSVFIFPPSDEQLKSGTASVVCLLNNFYPREAKVQWKVDNALQSGNSQESVTEQDSKDSTYSLSSTLTLSKADYEKHKVYACEVTHQGLSSPVTKSFNRGEC
notes: Two different heavy chains (heterodimeric Fc)

Columns and labels:
[1] = molecular target: T1, human NaPi2b (sodium-dependent phosphate transporter 2B) (human, UniProt O95436 1-690); assay: cell-based or functional assay
T1 sequence: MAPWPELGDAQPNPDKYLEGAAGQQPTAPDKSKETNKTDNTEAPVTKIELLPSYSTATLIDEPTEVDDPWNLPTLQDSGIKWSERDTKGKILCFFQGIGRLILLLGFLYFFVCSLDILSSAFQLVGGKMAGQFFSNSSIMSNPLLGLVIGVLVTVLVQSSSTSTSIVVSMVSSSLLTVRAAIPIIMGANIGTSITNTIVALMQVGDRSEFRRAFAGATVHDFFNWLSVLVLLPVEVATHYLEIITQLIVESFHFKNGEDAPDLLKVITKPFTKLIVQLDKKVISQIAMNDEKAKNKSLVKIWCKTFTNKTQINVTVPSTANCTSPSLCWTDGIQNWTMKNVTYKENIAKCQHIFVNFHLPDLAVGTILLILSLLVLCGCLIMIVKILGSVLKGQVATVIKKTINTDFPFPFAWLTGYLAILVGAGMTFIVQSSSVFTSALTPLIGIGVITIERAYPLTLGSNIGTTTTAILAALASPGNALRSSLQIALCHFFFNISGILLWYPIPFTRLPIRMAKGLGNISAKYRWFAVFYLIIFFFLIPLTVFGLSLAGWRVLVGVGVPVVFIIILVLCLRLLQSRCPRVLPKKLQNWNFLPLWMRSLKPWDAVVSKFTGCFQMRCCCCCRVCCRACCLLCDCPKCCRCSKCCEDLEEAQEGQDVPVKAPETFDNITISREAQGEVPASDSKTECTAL

[2] = molecular target: T1, human NaPi2b (sodium-dependent …); assay: cell-based or functional assay; remark: listed apart in the source
[3] = molecular target: T1, human NaPi2b (sodium-dependent …); assay: flow cytometry on H441 cells (endogenous NaPi2b), 24 h at 4 C
[4] = molecular target: T1, human NaPi2b (sodium-dependent …); assay: flow cytometry on HCC-78 cells (endogenous NaPi2b), 24 h at 4 C
[5] = molecular target: T1, human NaPi2b (sodium-dependent …); assay: flow cytometry on IGROV-1 cells (endogenous NaPi2b), 24 h at 4 C
[6] = molecular target: T2, human sodium-dependent phosphate transporter 2B (NaPi2b) (human, UniProt O95436 1-690); assay: flow cytometry on H441 cells (endogenous NaPi2b), 24 h at 4 C, anti-human IgG Fc AF647, APC-A GeoMean
T2 construct: UniProt ID is given as 095436 [sic]; also called hNaPi2b; Hu NaPi2b
T2 sequence: T1 sequence

[7] = molecular target: T2, human sodium-dependent phosphate …; assay: flow cytometry on HCC-78 cells (endogenous NaPi2b), 24 h at 4 C, anti-human IgG Fc AF647, APC-A GeoMean
[8] = molecular target: T2, human sodium-dependent phosphate …; assay: flow cytometry on IGROV-1 cells (endogenous NaPi2b), 24 h at 4 C, anti-human IgG Fc AF647, APC-A GeoMean
[9] = molecular target: T3, human FcγR I CD64 (Sino Biological Inc. 10256-H08H) (human, UniProt P12314 16-288); assay: SPR (Biacore T200), antibody captured on protein A, FcγR as analyte, multicycle, 1:1 fit
T3 construct: Bought reagent
T3 sequence (P12314 16-288 limits assumed): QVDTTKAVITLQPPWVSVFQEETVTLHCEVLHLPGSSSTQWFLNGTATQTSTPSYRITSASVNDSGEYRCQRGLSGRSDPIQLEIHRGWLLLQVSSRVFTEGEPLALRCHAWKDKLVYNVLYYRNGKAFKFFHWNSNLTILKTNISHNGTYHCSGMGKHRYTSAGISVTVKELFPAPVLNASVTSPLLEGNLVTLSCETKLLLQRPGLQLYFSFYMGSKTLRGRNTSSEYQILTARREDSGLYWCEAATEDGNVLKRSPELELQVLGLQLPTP

[10] = molecular target: T4, human FcγR IIA H131 CD32aH (v5774) (human, UniProt P12318 34-217, limits assumed); assay: SPR (Biacore T200), antibody captured on protein A, FcγR as analyte, single-cycle, steady-state fit;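 note: five FcγR concentrations per single cycle, 40 s association then 120 s dissociation, responses corrected against a reference flow cell and blank buffer injections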
T4 construct: In-house reagent
T4 sequence (looked up): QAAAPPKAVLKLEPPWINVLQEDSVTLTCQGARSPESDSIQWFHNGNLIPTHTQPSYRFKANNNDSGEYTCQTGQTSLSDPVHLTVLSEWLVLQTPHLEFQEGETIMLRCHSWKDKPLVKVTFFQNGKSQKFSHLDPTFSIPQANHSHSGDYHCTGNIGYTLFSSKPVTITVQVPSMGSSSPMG

[11] = molecular target: T5, human FcγR IIB Y160 CD32bY (v5777) (human, UniProt P31994 43-217, limits assumed); assay: as above
T5 construct: In-house reagent
T5 sequence (looked up): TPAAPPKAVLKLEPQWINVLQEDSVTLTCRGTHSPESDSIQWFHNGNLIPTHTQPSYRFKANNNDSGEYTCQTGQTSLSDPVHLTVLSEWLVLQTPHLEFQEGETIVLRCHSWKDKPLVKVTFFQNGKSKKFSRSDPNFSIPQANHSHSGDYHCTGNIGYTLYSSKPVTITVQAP

[12] = molecular target: T6, human FcγR IIIA F159 CD16aF (v5772) (human, UniProt P08637 17-208, limits assumed); assay: as above
T6 construct: In-house reagent
T6 sequence (P08637 17-208 limits assumed): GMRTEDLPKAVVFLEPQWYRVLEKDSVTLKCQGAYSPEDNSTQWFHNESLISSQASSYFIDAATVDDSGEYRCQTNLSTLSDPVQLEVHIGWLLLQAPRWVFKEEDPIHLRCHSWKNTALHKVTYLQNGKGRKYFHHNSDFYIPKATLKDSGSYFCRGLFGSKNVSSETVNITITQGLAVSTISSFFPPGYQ

Biotinylated human FcRn = molecular target: T7, Biotinylated human FcRn (human, UniProt P55899 24-297; P61769 21-119, limits assumed, biotinylated (site not stated)); assay: SPR (Biacore T200), biotinylated FcRn on neutravidin, antibody as analyte, pH 5.9, steady-state fit
T7 construct: also called Biotinlated human FcRn; human neonatal fragment crystallizable receptor (FcRn)
T7 sequence (P55899 24-297 limits assumed, chain 1 of 2): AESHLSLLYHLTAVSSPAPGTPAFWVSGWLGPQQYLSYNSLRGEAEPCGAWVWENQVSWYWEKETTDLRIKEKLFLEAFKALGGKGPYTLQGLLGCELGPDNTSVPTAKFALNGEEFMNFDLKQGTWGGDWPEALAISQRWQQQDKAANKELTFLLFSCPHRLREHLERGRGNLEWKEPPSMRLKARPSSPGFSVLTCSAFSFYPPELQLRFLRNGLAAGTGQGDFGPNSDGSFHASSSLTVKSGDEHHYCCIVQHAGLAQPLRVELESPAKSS
T7 sequence (P61769 21-119 limits assumed, chain 2 of 2): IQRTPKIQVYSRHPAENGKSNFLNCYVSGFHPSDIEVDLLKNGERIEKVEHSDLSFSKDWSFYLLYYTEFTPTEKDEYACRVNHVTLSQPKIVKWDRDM

Binder	Internalized Fluorescence Fold-Over Untreated, H441, 4 h, 2.5 nM [1]	Internalized Fluorescence Fold-Over Untreated, H441, 24 h, 2.5 nM [1]	Internalized Fluorescence Fold-Over Untreated, HCC-78, 4 h, 2.5 nM [1]	Internalized Fluorescence Fold-Over Untreated, HCC-78, 24 h, 2.5 nM [1]	Internalized Fluorescence Fold-Over Untreated, IGROV-1, 4 h, 2.5 nM [1]	Internalized Fluorescence Fold-Over Untreated, IGROV-1, 24 h, 2.5 nM [1]	EC50 (nM), in vitro cytotoxicity, H441 spheroids, 7 days [2]	EC50 (nM), in vitro cytotoxicity, H1781 spheroids, 7 days [2]	Bmax (MFI) [3]	Kd [3]	Bmax (MFI) [4]	Kd [4]	Bmax (MFI) [5]	Kd [5]	EC50 (read off the curve) [6]	EC50 (read off the curve) [7]	EC50 (read off the curve) [8]	Binding percentage [9]	Binding percentage [10]	Kd [10]	also measured
B1	1.2 fold	2 fold	5.6 fold	35.9 fold	7.1 fold	26.6 fold	9.85 nM	0.95 nM	521 MFI	0.74 nM	7810 MFI	1.07 nM	10500 MFI	0.82 nM							
B2	1.2 fold	1.9 fold	5.3 fold	36.5 fold	6.8 fold	25.4 fold	7.57 nM	1.15 nM	518 MFI	0.81 nM	7770 MFI	1.12 nM	10700 MFI	0.82 nM							
B3															~0.6 nM	~3 nM	~2 nM				
B4															~0.6 nM	~3 nM	~2 nM				
B5																		97.7%	92.1%	1010 nM	Binding percentage [11]: 121%; Kd [11]: 5780 nM; Binding percentage [12]: 98.7%; Kd [12]: 2380 nM; Binding percentage (Biotinylated human FcRn): 20.3%; Kd (Biotinylated human FcRn): 61.8 nM
B6																		76.9%	69.6%	746 nM	Kd [9]: 0.0966 nM; Binding percentage [11]: 88.6%; Kd [11]: 3740 nM; Binding percentage [12]: 71.5%; Kd [12]: 2020 nM; Binding percentage (Biotinylated human FcRn): 25.1%; Kd (Biotinylated human FcRn): 68.2 nM
